{
  "source": "paper PMC3269530",
  "about": "(Journal of Molecular Biology, 2011)",
  "molecules": {"B1": {"name": "ArfA-c: C domain of M. tuberculosis ArfA (Rv0899), residues 196–326 (protein)", "chain": "GQAPPGPPASGPCADLQSAINAVTGGPIAFGNDGASLIPADYEILNRVADKLKACPDARVTINGYTDNTGSEGINIPLSAQRAKIVADYLVARGVAGDHIATVGLGSVNPIASNATPEGRAKNRRVEIVVN"}, "B2": {"name": "ArfA-bc: joint B and C domains of ArfA, residues 73–326 (protein)", "chain": "GASALSLSLLSISRSGNTVTLIGDFPDEAAKAALMTALNGLLAPGVNVIDQIHVDPVVRSLDFSSAEPVFTASVPIPDFGLKVERDTVTLTGTAPSSEHKDAVKRAATSTWPDMKIVNNIEVTGQAPPGPPASGPCADLQSAINAVTGGPIAFGNDGASLIPADYEILNRVADKLKACPDARVTINGYTDNTGSEGINIPLSAQRAKIVADYLVARGVAGDHIATVGLGSVNPIASNATPEGRAKNRRVEIVVN"}},
  "key": {"[1]": {"target": "ArfA-c (Mycobacterium tuberculosis, UniProt P9WIU5)", "assay": "biochemical", "assay_type": "binding"}, "[2]": {"target": "ArfA-c", "assay_type": "binding, M. tuberculosis"}, "[3]": {"system": "ArfA (S302 amide proton, β3-α4 loop)", "assay": "Saturation transfer difference NMR", "assay_type": "binding, M. tuberculosis"}, "[4]": {"assay_type": "binding, Mycobacterium tuberculosis, strain H37Rv", "conditions": "qualitative"}},
  "data": [
    {"molecule": "CC(=O)N[C@H]1[C@@H](OP(=O)(O)OP(=O)(O)OC[C@H]2O[C@@H](n3ccc(=O)[nH]c3=O)[C@H](O)[C@@H]2O)O[C@H](CO)[C@@H](O)[C@@H]1O[C@H](C)C(=O)N[C@@H](C)C(=O)N[C@H](CCC(=O)N[C@@H](CCC[C@@H](N)C(=O)O)C(=O)N[C@H](C)C(=O)N[C@H](C)C(=O)O)C(=O)O", "note": "[UMDP, uridine-5'-diphosphate–MurNAc–L-Ala–D-γ-Glu–m-DAP–D-Ala–D-Ala (Park's nucleotide)]", "values": [
      {"measurement": "Kd", "setting": "[1]", "result": "~1000", "unit": "µM"}
    ]},
    {"molecule": "uridine-5'-diphosphate–MurNAc–L-Ala–D-γ-Glu–m-DAP–D-Ala– D-Ala [UMDP]", "values": [
      {"measurement": "Kd", "setting": "[2]", "result": "~1000", "unit": "µM"},
      {"measurement": "proximity of S302 amide proton to MurNAc methyl protons", "setting": "[3]", "result": "in some proximity"}
    ]},
    {"molecule": "CC(=O)N[C@H]1C(OP(=O)(O)OP(=O)(O)OC[C@H]2O[C@@H](n3ccc(=O)[nH]c3=O)[C@H](O)[C@@H]2O)O[C@H](CO)[C@@H](O)[C@@H]1O[C@H](C)C(=O)N[C@@H](C)C(=O)N[C@H](CCC(=O)N[C@@H](CCCCN)C(=O)N[C@H](C)C(=O)N[C@H](C)C(=O)O)C(=O)O", "note": "(stereo partly drawn) [UMKP, uridine-5'-diphosphate–MurNAc–L-Ala–D-γ-Glu–L-Lys–D-Ala–D-Ala]", "values": [
      {"measurement": "effect on the NMR spectrum of ArfA-c", "setting": "[2]", "result": "no effect"}
    ]},
    {"molecule": "B1", "values": [
      {"measurement": "affinity for polymeric M. tuberculosis peptidoglycan", "setting": "[4]", "result": "strong (enough to precipitate the protein)"},
      {"measurement": "temperature of thermal unfolding, pH 4", "setting": "pH4, 15 µM protein, Sypro orange, 20-95°C, 0.03°C per second, Fig. 2d", "result": 65.0, "unit": "°C"},
      {"measurement": "temperature of thermal unfolding, pH 7", "setting": "pH7, 15 µM protein, Sypro orange, 20-95°C, 0.03°C per second, Fig. 2d", "result": 63.2, "unit": "°C"},
      {"measurement": "increase in temperature of thermal unfolding on lowering pH from 7 to 4", "setting": "pH 7 to 4, Sypro orange DSF, Fig. 2d", "result": 2, "unit": "°C"}
    ]},
    {"molecule": "B2", "values": [
      {"measurement": "stabilization provided by the disulfide bond", "setting": "GSSG vs DTT, Sypro orange DSF, Fig. 2a", "result": "about 1 °C"}
    ]}
  ]
}
